Results on two molecules are retold here after paper PMC10115415, “RNA binding induces an allosteric switch in Cyp33 to repress MLL1-mediated transcription” (Science Advances, 2023).

One may read the Kd as the concentration at which binding is half-saturated. Low readings indicate a tighter complex, high ones a looser complex.

To fix the notation:
B1: MLL1 third plant homeodomain (PHD3) (domain or fragment, UniProt Q03164 1564-1627, looked up)
chain: AKGNFCPLCDKCYDDDDYESKMMQCGKCDRWVHSKCENLSDEMYEILSNLPESVAYTCVNCTER
notes: mixed-lineage leukemia 1 (MLL1), PHD3 domain, residues 1564 to 1627 (chain B 1564–1627); coordinates two zinc ions; The tag was removed with TEV protease on the chitin column; also called MLL1 PHD3; MLL1-PHD3; source: E. coli BL21-(DE3), codon-optimized construct, IMPACT system, purified (chitin beads, TEV cleavage, Superdex 75)

Common to all, as to conditions: both partners purified
Assay [1] addresses T1, Cyp33 full-length (FL) (human, UniProt Q9UNP9 1-301).
T1 construct: cyclophilin 33 (Cyp33), 33 kDa, N-terminal RRM and C-terminal cyclophilin domain; details may stand in the Supplementary Materials and Methods; also called Cyp33 FL; cyclophilin 33
Briefly: NMR titration; Cyp33 FL:UAAUGU RNA complex mixed with MLL1 PHD3:H3K4me3 complex at 1:1:1:1 stoichiometry (or in large excess of Cyp33:RNA); signals of RNA, of the K4me3 methyl groups and of PHD3 residues followed.

Assay [2] deals with Cyp33 RRM/MLL1 PHD3 complex (human | , UniProt Q9UNP9 1-114; Q03164 1564-1627). Briefly: ITC; conditions not given (table S1, fig. S2). A general note: Isothermal titration calorimetry measures the heat released or taken up as one component is titrated into another.
Assay [3] deals with B1. Briefly: ITC; conditions not given (table S1, fig. S2).

T1 sequence (Q9UNP9 whole entry, the tested form may be a part): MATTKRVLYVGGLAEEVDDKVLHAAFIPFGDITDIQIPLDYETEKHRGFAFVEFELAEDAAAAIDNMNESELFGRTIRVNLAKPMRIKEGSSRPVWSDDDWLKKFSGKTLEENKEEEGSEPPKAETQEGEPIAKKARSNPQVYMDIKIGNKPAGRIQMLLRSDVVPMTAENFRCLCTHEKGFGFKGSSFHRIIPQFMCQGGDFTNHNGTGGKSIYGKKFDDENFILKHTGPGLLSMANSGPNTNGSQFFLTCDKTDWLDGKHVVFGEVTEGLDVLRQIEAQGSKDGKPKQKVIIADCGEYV
Cyp33 RRM/MLL1 PHD3 complex, sequence (Q9UNP9 other isoform, or with tags, fused parts or gaps): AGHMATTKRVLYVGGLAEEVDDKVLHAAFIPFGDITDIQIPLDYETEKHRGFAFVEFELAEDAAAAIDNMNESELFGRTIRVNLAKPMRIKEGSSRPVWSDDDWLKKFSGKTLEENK

As to B1, the binding result in assay [1] is listed as “binds”.

B2: Histone H3 lysine N6-trimethylated peptide (H3K4me3) (peptide, UniProt P68431 2-14, looked up)
peptide: ARTKQTARKSTGG
modifications: N6-trimethyl-lysine at 4
notes: histone H3 N-terminal tail, residues 1–13 (chain C of the ternary complex), Lys4 trimethylated; The text says that it has four positively charged residues and no negatively charged one; The limits 1–13 are those of chain C of the structure; also called H3K4me3 peptide; histone H3 tail
Turning to B2, the figures for the dissociation constant (Kd) in assay [2] and in assay [3] were 70 µM and 51 µM, respectively.
